Measured values: article PMC9890227

Columns and labels:
Assay in all cases: EMSA
MutLbeta (MLH1-PMS1) = MutLbeta (MLH1-PMS1) (Homo sapiens, UniProt P40692;P54277 1-756;1-932)
MutLgamma (MLH1-MLH3) = MutLgamma (MLH1-MLH3) (Homo sapiens, UniProt P40692;Q9UHC1 1-756;1-1453)
MutSbeta (MSH2-MSH3) = MutSbeta (MSH2-MSH3) (Homo sapiens, UniProt P43246;P20585 1-934;1-1137)

Measured: binding result

Chain of MutLbeta (MLH1-PMS1) (P40692 whole entry, chain 1 of 2): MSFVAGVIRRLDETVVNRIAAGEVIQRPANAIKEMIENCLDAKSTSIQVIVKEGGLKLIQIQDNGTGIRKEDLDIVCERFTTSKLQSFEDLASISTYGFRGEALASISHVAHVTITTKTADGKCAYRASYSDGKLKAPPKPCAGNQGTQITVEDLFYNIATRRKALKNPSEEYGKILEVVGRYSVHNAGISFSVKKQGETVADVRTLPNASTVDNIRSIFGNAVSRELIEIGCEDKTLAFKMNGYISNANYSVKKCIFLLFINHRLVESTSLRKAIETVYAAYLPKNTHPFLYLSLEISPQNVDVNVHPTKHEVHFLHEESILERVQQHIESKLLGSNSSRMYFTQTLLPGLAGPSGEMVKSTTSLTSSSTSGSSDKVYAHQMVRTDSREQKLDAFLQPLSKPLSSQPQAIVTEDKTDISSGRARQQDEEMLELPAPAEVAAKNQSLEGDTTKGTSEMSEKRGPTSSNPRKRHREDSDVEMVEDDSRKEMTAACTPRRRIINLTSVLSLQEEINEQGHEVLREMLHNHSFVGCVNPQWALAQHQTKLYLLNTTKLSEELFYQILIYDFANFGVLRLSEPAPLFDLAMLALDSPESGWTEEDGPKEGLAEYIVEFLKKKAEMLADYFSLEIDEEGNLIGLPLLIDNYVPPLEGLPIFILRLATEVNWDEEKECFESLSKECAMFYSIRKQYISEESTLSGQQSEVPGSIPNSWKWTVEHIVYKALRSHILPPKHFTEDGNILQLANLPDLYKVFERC
Chain of MutLbeta (MLH1-PMS1) (P54277 whole entry, chain 2 of 2): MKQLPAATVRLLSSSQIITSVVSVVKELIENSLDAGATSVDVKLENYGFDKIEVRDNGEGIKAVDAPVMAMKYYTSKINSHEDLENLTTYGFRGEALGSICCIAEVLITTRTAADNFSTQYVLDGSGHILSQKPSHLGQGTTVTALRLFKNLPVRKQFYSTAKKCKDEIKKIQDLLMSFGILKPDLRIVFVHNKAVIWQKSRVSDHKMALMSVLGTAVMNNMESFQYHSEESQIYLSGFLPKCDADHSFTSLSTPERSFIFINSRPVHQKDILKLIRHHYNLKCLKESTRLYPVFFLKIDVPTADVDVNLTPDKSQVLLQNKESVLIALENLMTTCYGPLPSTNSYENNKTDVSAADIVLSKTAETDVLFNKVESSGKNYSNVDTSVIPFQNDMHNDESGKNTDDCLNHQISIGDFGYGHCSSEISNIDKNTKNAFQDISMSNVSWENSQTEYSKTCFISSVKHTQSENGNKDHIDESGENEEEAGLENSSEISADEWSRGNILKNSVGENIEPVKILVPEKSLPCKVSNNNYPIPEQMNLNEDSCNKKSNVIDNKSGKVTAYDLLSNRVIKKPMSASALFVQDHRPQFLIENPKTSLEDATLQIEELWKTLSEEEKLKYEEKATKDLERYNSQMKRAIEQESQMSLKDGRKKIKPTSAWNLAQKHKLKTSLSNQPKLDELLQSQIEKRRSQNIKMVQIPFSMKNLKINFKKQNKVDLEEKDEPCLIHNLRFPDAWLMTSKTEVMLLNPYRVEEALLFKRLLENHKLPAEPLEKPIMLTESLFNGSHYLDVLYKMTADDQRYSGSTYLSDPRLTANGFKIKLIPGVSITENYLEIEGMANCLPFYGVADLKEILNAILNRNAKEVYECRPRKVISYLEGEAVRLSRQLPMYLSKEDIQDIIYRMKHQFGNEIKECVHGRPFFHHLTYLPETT
Chain of MutLgamma (MLH1-MLH3) (P40692 whole entry, chain 1 of 2): as the sequence (P40692 whole entry, chain 1 of 2) above
Chain of MutLgamma (MLH1-MLH3) (Q9UHC1 whole entry, chain 2 of 2): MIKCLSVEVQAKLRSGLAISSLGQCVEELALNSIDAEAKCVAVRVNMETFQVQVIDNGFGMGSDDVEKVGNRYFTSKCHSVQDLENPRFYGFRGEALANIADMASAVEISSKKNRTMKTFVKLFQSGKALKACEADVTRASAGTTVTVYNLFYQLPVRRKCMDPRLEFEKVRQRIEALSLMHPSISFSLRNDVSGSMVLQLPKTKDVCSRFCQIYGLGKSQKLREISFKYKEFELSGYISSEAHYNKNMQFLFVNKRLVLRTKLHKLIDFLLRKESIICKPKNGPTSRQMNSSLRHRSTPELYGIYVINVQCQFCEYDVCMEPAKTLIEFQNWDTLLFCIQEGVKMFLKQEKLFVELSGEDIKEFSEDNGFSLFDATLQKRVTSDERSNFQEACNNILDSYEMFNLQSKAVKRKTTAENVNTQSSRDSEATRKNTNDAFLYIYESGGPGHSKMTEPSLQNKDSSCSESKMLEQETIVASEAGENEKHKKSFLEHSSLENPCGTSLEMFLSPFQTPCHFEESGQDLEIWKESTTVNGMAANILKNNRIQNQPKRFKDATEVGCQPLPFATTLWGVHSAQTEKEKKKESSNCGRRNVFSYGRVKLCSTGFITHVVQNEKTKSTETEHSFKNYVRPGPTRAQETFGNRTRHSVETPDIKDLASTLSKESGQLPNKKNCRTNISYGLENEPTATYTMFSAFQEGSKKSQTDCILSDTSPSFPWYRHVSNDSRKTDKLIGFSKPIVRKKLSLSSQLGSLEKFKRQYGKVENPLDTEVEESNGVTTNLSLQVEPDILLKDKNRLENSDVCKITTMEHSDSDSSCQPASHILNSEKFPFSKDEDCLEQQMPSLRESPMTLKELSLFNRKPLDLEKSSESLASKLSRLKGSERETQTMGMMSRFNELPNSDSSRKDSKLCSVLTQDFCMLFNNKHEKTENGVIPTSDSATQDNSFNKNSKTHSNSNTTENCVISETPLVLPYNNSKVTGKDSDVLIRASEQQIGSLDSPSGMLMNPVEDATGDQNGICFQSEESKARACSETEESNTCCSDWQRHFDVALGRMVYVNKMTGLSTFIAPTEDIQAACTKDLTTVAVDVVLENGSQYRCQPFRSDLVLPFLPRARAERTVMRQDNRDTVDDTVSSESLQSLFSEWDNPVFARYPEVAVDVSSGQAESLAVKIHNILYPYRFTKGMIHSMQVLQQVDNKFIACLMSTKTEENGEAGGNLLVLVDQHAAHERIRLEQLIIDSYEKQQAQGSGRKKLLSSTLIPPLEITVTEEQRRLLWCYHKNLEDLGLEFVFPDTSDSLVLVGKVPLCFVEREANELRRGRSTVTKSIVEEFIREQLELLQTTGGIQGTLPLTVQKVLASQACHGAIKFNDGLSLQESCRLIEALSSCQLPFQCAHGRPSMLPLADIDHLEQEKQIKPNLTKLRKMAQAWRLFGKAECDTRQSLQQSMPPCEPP

B1: Holliday junction (PC1253/PC1254/PC1255/PC1256) (structured_DNA)
DNA 1: TGGGTCAACGTGGGCAAAGATGTCCTAGCAATGTAATCGTCTATGACGTT
DNA 2: TGCCGAATTCTACCAGTGCCAGTGATGGACATCTTTGCCCACGTTGACCC
DNA 3: GTCGGATCCTCTAGACAGCTCCATGATCACTGGCACTGGTAGAATTCGGC
DNA 4: CAACGTCACAGACGATTACATTGCTACATGGAGCTGTCTAGAGGATCCGA
binds: MutLbeta (MLH1-PMS1) | MutLgamma (MLH1-MLH3) | MutSbeta (MSH2-MSH3)
